Results reported in patent US12233115B2, “Long-acting parathyroid hormone” (Extend Biosciences, Inc., priority 2022, dated 2025).
Values joined by “and” are separate entries in the source; they are usually repeats but may differ in a detail not shown here. Equal values may be shown once.

Assays:
[1] = Single dose pharmacokinetics of EXT607 in male rats; details: in vivo, rat
Procedure: In a single dose pharmacokinetic study, EXT607 was formulated in PBS and groups of male rats (n=3) were dosed at a volume of 1 ml/kg as follows: Group 1, 100 μg/kg intravenous; Group 2, 30 μg/kg subcutaneous; Group 3, 100 μg/kg subcutaneous; Group 4, 300 μg/kg subcutaneous. Blood (0.25 mL) was collected via the jugular vein cannula, transferred into tubes containing K2EDTA, and kept on wet ice until processed for plasma. Blood samples were collected at 0 (predose), 0.083 (IV only), 0.25, 0.5, 1, 2, 4, 6, 8, 12, 24, 36, 48, 60 and 72 h postdose.
(§1) Pharmacokinetic parameters were determined from the plasma concentration versus time data (Table 4) by a non-compartmental analysis with uniform weighting using Phoenix® WinNonlin® Version 6.3 (Certara L.P. (Pharsight), St. Louis, MO). The concentration versus time data were analyzed using the IV bolus or extravascular administration models. Best fit Lambda z ranges were used.

[2] = Single dose pharmacokinetics of EXT607 in male cynomolgus monkeys; assay type: in vivo; details: cynomolgus monkey
Procedure: In a single dose pharmacokinetic study, EXT607 was formulated in PBS and groups of male cynomolgus monkeys (n=3), weighing approximately 4 kg each, were dosed at a volume of 1 ml/kg as follows: Group 1, 20 μg/kg intravenous; Group 2, 7 μg/kg subcutaneous; Group 3, 20 μg/kg subcutaneous; Group 4, 70 μg/kg subcutaneous. Blood (1.0 mL) was collected via the jugular vein cannula, transferred into tubes containing K2EDTA, and kept on wet ice until processed for plasma. Blood samples were collected at 0 (pre-dose), 0.083 (IV only), 0.25, 0.5, 1, 2, 4, 6, 8, 12, 24, 36, 48, 60 and 72 h post-dose.
as §1, with “5)” for “4)”
At low doses, the rate of subcutaneous absorption is slower than at high doses, leading to a lower Cmax and an overall flatter PK profile.

[3] = test system: Thyroparathyroidectomized (TPTx) rats; assay: 28-day pharmacodynamic study in thyroparathyroidectomized (TPTx) rats; assay type: in vivo, rat; details: for % Increase in Serum Calcium, Cumulative: Days 1, 12, 27, relative to TPTx/vehicle; for increase in serum calcium compared to TPTx controls (in words): daily SC dosing (EXT607 1, 3, 10 nmol/kg; PTH peptides 10 nmol/kg); for decrease in serum phosphate (in words): daily SC dosing (EXT607 all dose levels; PTH peptides 10 nmol/kg), from Day 12
Excerpt: 28-day Pharmacodynamic Study of EXT607 in TPTx Rats. Thyroparathyroidectomized (TPTx) rats are a model for hypoparathyroidism. To produce TPTx rats, the thyroid and parathyroid glands were surgically resected and the rats were given L-thyroxine to compensate for the loss of their thyroid. Due to the absence of PTH, TPTx rats had lower levels of serum calcium and higher levels of serum phosphate.
Each group consisted of 10 female rats split into two cohorts of 5 animals for blood sampling purposes. On days 1, 12, and 27, blood (˜0.2 ml) was collected into serum separation tubes at t=0 (pre-dose), 2, 6, 10, and 24 h. The samples were processed into serum by standard methods and analyzed for serum total calcium and phosphate.
Calcium levels at 3 and 10 nmol/kg (20 and 60 μg/kg) were at or just below the normal range of calcium levels for healthy animals. […] For each timepoint, the percent increase in serum calcium relative to the TPTx vehicle control group (Group 2) was determined and daily averages were calculated (Table 9B). Over the three days sampled (Days 1, 12, and 27), […] increased serum calcium an average of 17, 28, and 37% at 1, 3, and 10 nmol/kg, respectively.
At each timepoint, the percent decrease in serum phosphate relative to the TPTx vehicle control group (Group 2) was determined, and daily averages were calculated (Table 9C).

[4] = 7 μg/kg SC relative to 70 μg/kg SC
[5] = 20 μg/kg SC relative to 70 μg/kg SC
[6] = in vivo, 7 ug/kg, single 7 μg/kg SC
[7] = in vivo, 20 ug/kg, single 20 μg/kg IV
[8] = in vivo, 20 ug/kg, single 20 μg/kg SC
[9] = in vivo, 70 ug/kg, single 70 μg/kg SC
[10] = 10 nmol/kg SC daily, Day 1, relative to TPTx/vehicle
[11] = 10 nmol/kg SC daily, Day 12, relative to TPTx/vehicle
[12] = 10 nmol/kg SC daily, Day 27, relative to TPTx/vehicle

C=C1CC[C@H](OCCCNC(=O)CCOCCOCCOCCOCCOCCOCCOCCOCCOCCOCCOCCOCCOCCOCCOCCOCCOCCOCCOCCOCCOCCOCCOCCOCCOCCOCCOCCOCCOCCOCCOCCOCCOCCOCCOCCOCCNC(=O)CCN2C(=O)CC(SC[C@H](NC(=O)[C@H](Cc3ccccc3)NC(=O)[C@H](CC(N)=O)NC(=O)[C@H](Cc3c[nH]cn3)NC(=O)[C@@H](NC(=O)[C@H](CC(=O)O)NC(=O)[C@H](CCC(N)=O)NC(=O)[C@H](CC(C)C)NC(=O)[C@H](CCCCN)NC(=O)[C@H](CCCCN)NC(=O)[C@H](CCCNC(=N)N)NC(=O)[C@H](CC(C)C)NC(=O)[C@H](Cc3c[nH]c4ccccc34)NC(=O)[C@H](CCC(=O)O)NC(=O)[C@@H](NC(=O)[C@H](CCCNC(=N)N)NC(=O)[C@H](CCC(=O)O)NC(=O)[C@H](CCSC)NC(=O)[C@H](CO)NC(=O)[C@H](CC(N)=O)NC(=O)[C@H](CC(C)C)NC(=O)[C@H](Cc3c[nH]cn3)NC(=O)[C@H](CCCCN)NC(=O)CNC(=O)[C@H](CC(C)C)NC(=O)[C@H](CC(N)=O)NC(=O)[C@H](Cc3c[nH]cn3)NC(=O)[C@H](CCSC)NC(=O)[C@H](CC(C)C)NC(=O)[C@H](CCC(N)=O)NC(=O)[C@@H](NC(=O)[C@H](CCC(=O)O)NC(=O)[C@H](CO)NC(=O)[C@@H](NC(=O)[C@@H](N)CO)C(C)C)[C@@H](C)CC)C(C)C)C(C)C)C(=O)O)C2=O)C/C1=C/C=C1\CCC[C@]2(C)[C@@H]([C@H](C)CCCC(C)(C)O)CC[C@@H]12 (some centres unmarked) [EXT607]
AUC(0-inf) ([1]; 30 ug/kg, single 30 μg/kg SC): 186 ng·h/mL | MRT ([1]; 30 ug/kg, single 30 μg/kg SC): 15.9 h | bioavailability ([1]; 30 ug/kg, single 30 μg/kg SC, read-out: Bioavailability): 12.9% | AUC(0-inf) ([1]; 100 ug/kg, single 100 μg/kg IV): 4390 ng·h/mL | C0 ([1]; 100 ug/kg, single 100 μg/kg IV): 2860 ng/mL | MRT ([1]; 100 ug/kg, single 100 μg/kg IV): 3.49 h | Vd ([1]; 100 ug/kg, single 100 μg/kg IV, read-out: VZ): 0.304 L/kg | AUC(0-inf) ([1]; 100 ug/kg, single 100 μg/kg SC): 472 ng·h/mL | MRT ([1]; 100 ug/kg, single 100 μg/kg SC): 13.7 h | bioavailability ([1]; 100 ug/kg, single 100 μg/kg SC, read-out: Bioavailability): 10.7% | half-life ([1]; 300 ug/kg, SC 30, 100 or 300 μg/kg, read-out: half-life): 7 to 15 h | AUC(0-inf) ([1]; 300 ug/kg, single 300 μg/kg SC): 1290 ng·h/mL | MRT ([1]; 300 ug/kg, single 300 μg/kg SC): 13.6 h | bioavailability ([1]; 300 ug/kg, single 300 μg/kg SC, read-out: Bioavailability): 9.67% | half-life ([1]; sc, rats, after subcutaneous dosing, read-out: terminal half-life): 8 to 15 h | bioavailability ([1]; male rats, based on AUC vs intravenous injection, across SC doses, read-out: subcutaneous bioavailability (% F)): 10 to 13% | dose-adjusted AUC ratio [2, 4]: 0.95 | dose-adjusted Cmax ratio [2, 4]: 0.28 | dose-adjusted AUC ratio [2, 5]: 0.85 | dose-adjusted Cmax ratio [2, 5]: 0.55 | dose-adjusted AUC ratio ([2]; 70 μg/kg SC (reference)): 1.00 | dose-adjusted Cmax ratio ([2]; 70 μg/kg SC (reference)): 1.00 | half-life ([2]; in vivo, sc, NHP, after subcutaneous dosing, read-out: terminal half-life): 24 to 32 h | AUC(0-inf) [2, 6]: 483 ng·h/mL | MRT [2, 6]: 29.5 h | half-life ([2]; in vivo, 7 ug/kg, single 7 μg/kg SC, read-out: t1/2 (converted)): 24 h | AUC(0-inf) [2, 7]: 2850 ng·h/mL | C0 [2, 7]: 782 ng/mL | MRT [2, 7]: 11.2 h | Vd ([2]; in vivo, 20 ug/kg, single 20 μg/kg IV, read-out: VZ): 0.34 L/kg | half-life ([2]; in vivo, 20 ug/kg, single 20 μg/kg IV, read-out: t1/2 (converted)): 32.3 h | AUC(0-inf) [2, 8]: 1290 ng·h/mL | AUC(0-t) [2, 8]: 1160 ng·h/mL | MRT [2, 8]: 23.3 h | half-life ([2]; in vivo, 20 ug/kg, single 20 μg/kg SC, read-out: t1/2 (converted)): 24.3 h | AUC(0-inf) [2, 9]: 5300 ng·h/mL | MRT [2, 9]: 17.5 h | half-life ([2]; in vivo, 70 ug/kg, single 70 μg/kg SC, read-out: t1/2 (converted)): 27.7 h | bioavailability ([2]; in vivo, across SC doses, read-out: bioavailability when delivered subcutaneously): 45 to 54% | half-life ([2]; in vivo, across doses, read-out: t1/2 of elimination): 24 to 32 h

CC[C@H](C)[C@H](NC(=O)[C@H](CCC(=O)O)NC(=O)[C@H](CO)NC(=O)[C@@H](NC(=O)[C@@H](N)CO)C(C)C)C(=O)N[C@@H](CCC(N)=O)C(=O)N[C@@H](CC(C)C)C(=O)N[C@@H](CCSC)C(=O)N[C@@H](Cc1c[nH]cn1)C(=O)N[C@@H](CC(N)=O)C(=O)N[C@@H](CC(C)C)C(=O)NCC(=O)N[C@@H](CCCCN)C(=O)N[C@@H](Cc1c[nH]cn1)C(=O)N[C@@H](CC(C)C)C(=O)N[C@@H](CC(N)=O)C(=O)N[C@@H](CO)C(=O)N[C@@H](CCSC)C(=O)N[C@@H](CCC(=O)O)C(=O)N[C@@H](CCCNC(=N)N)C(=O)N[C@H](C(=O)N[C@@H](CCC(=O)O)C(=O)N[C@@H](Cc1c[nH]c2ccccc12)C(=O)N[C@@H](CC(C)C)C(=O)N[C@@H](CCCNC(=N)N)C(=O)N[C@@H](CCCCN)C(=O)N[C@@H](CCCCN)C(=O)N[C@@H](CC(C)C)C(=O)N[C@@H](CCC(N)=O)C(=O)N[C@@H](CC(=O)O)C(=O)N[C@H](C(=O)N[C@@H](Cc1c[nH]cn1)C(=O)N[C@@H](CC(N)=O)C(=O)N[C@@H](Cc1ccccc1)C(=O)O)C(C)C)C(C)C [PTH(1-34), reference compound]
% Decrease in Serum Phosphate, Daily Average [3, 10]: −1.7% | % Increase in Serum Calcium, Daily Average [3, 10]: 8.0% | % Decrease in Serum Phosphate, Daily Average [3, 11]: 9.1% | % Increase in Serum Calcium, Daily Average [3, 11]: 12% | % Decrease in Serum Phosphate, Daily Average [3, 12]: 13% | % Increase in Serum Calcium, Daily Average [3, 12]: 6.4% | % Increase in Serum Calcium, Cumulative ([3]; 10 nmol/kg SC daily): 9% and 8.7% | increase in serum calcium compared to TPTx controls (in words) [3]: minimal and did not reach statistical significance | decrease in serum phosphate (in words) [3]: Occasional decreases

B1: PTH(1-84): wild-type full-length parathyroid hormone, 84 amino acids, SEQ ID NO: 2 (protein, UniProt P01270 32-115, looked up)
Parathyroid hormone: SVSEIQLMHNLGKHLNSMERVEWLRKKLQDVHNFVALGAPLAPRDAGSQRPRKKEDNVLVESHEKSLGEADKADVNVLTKAKSQ
modifications: Parathyroid hormone
% Decrease in Serum Phosphate, Daily Average [3, 10]: 0.2% | % Increase in Serum Calcium, Daily Average [3, 10]: 7.0% | % Decrease in Serum Phosphate, Daily Average [3, 11]: 17% | % Increase in Serum Calcium, Daily Average [3, 11]: 14% | % Decrease in Serum Phosphate, Daily Average [3, 12]: 17% | % Increase in Serum Calcium, Daily Average [3, 12]: 4.1% | % Increase in Serum Calcium, Cumulative ([3]; 10 nmol/kg SC daily): 9% and 8.5% | % Decrease in Serum Phosphate, Combined ([3]; 10 nmol/kg SC daily, Days 12, 27, relative to TPTx/vehicle): 17% | increase in serum calcium compared to TPTx controls (in words) [3]: minimal and did not reach statistical significance with the exception of two isolated timepoints | decrease in serum phosphate (in words) [3]: Slight decreases
